The record followed here is the supplement of paper PMC11780869.

The series relates to Bacillus subtilis. In words: cleaved RNA product abundance (RNA/gDNA barcode ratio) relative to median wild-type variant (ratio to wild type); higher = more accumulation of the downstream cleavage product. A digest of the protocol: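 Truncated aprE or tetM reporter mRNAs with barcoded RNase Y cleavage-site windows, mutagenized from oligos at a 9% error rate, sat in the B. subtilis chromosome. Cells grew in LB at 37°C from OD600 0.0003 to 0.3. Gel-selected cleaved RNA was reverse transcribed and its barcodes sequenced with those from genomic DNA, collapsing by UMI. Cleaved product abundance equals the RNA:gDNA barcode ratio per construct over the median construct with the unmutated site.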

Setting [1] is: experiment (reporter, strain, medium): exp 4a: truncated aprE reporter, strain BJT201 with 2% xylose (RNase J1 expressed), cleavage site: cggR-gapA (positions -7 to +36 mutated).
The mark [2] stands for this setting: experiment (reporter, strain, medium): exp 8a: truncated aprE reporter, strain BJT201 with 2% xylose (RNase J1 expressed), cleavage site: glnRA (positions -5 to +31 mutated).
The mark [3] stands for this setting: experiment (reporter, strain, medium): exp 2b: truncated aprE reporter, strain BJT200, cleavage site: cggR-gapA (positions -7 to +36 mutated).
Setting [4] is: experiment (reporter, strain, medium): exp 6: tetM reporter, strain 168, cleavage site: cggR-gapA (positions -7 to +36 mutated).

“ACAGACGAAGGAGCCGCAAAGAAGTTATTAAGGGATGAATAATCCCTCAATATAAAAATTTCTCACTTATTTAAA”: the “cleaved RNA product abundance” value under setting [1] worked out at 0.688. Regarding “CGACATGTCCCGCTTCTTTCATTATTCCGTTAGCAACTGTTTTGCTATAGACATTTACCTTTTAAGAGGAGGAAT”, the “cleaved RNA product abundance” value under setting [2] worked out at 0.917. Turning to “ACAGACGAAGGAGCCGCAAAGAAGTTATTAAGGGAAGAATAATCCCTCAATATAAATAACTCTCACTTATTTAAA”, the “cleaved RNA product abundance” value under setting [1] was found to be 0.434.

In the case of “ACAGACGAAGGAGCCGCAAACAAGTTATTAAGGGATGAATAATCCGTCAATATAAATATCTCTCACTTATTTAAA”, under setting [1], the “cleaved RNA product abundance” value amounted to 0.187.

Take “CGACATGTCCCGCTTCTTTCATTATTCCGTTACCAACTGTTTTGCTATATACATTTACCTTTTAAGAGGAGGAAT”: the “cleaved RNA product abundance” value under setting [2] turned out to be 0.289. As for “CGACATGTCCCGCTTCTTTCATTAATCAGTTAGCAACTATTTTGCTATATACATTTACCTTTTAAGAGGAGGAAT”, the “cleaved RNA product abundance” value under setting [2] amounted to 1.97. Consider “ACAGACGAAGGAGCCGCAAATTAGTTATTAAGGGATGAATAATCCCTCAATATAAATATCTCTCACTTATTTAAA”, for which, under setting [1], the “cleaved RNA product abundance” value is 0.919. “CGACATGTCCCGCTTCTTTCATTAATCCGTTAGCAACTGTTTTGCTATTTACATATACCTTTTAAGAGGAGGAAT”: the “cleaved RNA product abundance” value under setting [2] stood at 0.317. Turning to “ACAGACGAAGGAGCCGCAAAAAAGTTATTAAGTGATGAATAATCCCTCAATATAAATATCTCTCACTTATTTAAA”, the “cleaved RNA product abundance” value runs as follows: under setting [3], 0.119; under setting [1], 0.0972. The matching figures for “ACAGACGAAGGAGCCGCAAAGAAGTTATTAAGGGACGAATAATCCGTCAATATAAATATCTCTCACTTATTTAAA”: 0.0596 and 0.072. For “ACAGACGAAGGAGCCGCAAACAAGTTATTAAGTGATGAATAATCCCTCAATATAAATATCTCTCACTTATTTAAA”, the “cleaved RNA product abundance” value by setting is: under setting [3], 0.0954; under setting [1], 0.0967. “ACAGACGAAGGAGCCGCAAAGAAGTGATTAAGGGATGAATAATCCCTCAAAATAAATATCTCTCACTTATTTAAA”: under setting [1], the “cleaved RNA product abundance” value was 0.258. As to “ACAGACGAAGGAGCCGCAAAGAAGTTTTTAAGGGATGAATAATCCCACAATATAAATATCTCTCACTTATTTAAA”, the “cleaved RNA product abundance” value under setting [1] was 0.251. With “CGACATGTCCCGCTTCTTTCATTAAACCGTTAGCAACTGTTTTGCTATATACATATACCTTTTAAGAGGAGGAAT”, under setting [2], the “cleaved RNA product abundance” value was 0.825.

With “ACAGACGAAGGAGCCGCAAAGAAGTTATTAAGGGATAAAAAATCCCTCAATATAAATATCTCTCACTTATTTAAA”, the “cleaved RNA product abundance” value under setting [1] turned out to be 0.625. On to “ACAGACGAAGGAGCCGCAAAGAAGTTATTAAGGGATGAATAATCCCTGAAGATAAATATCTCTCACTTATTTAAA”, for which the “cleaved RNA product abundance” value under setting [1] came out at 0.387.

Turning to “ACAGACGAAGGAGCCGCAAAGAAGTTATTAAGGGAATAATAATCCCTCAATATAAATATCTCTCACTTATTTAAA”, the “cleaved RNA product abundance” value reads like this: under setting [3], 0.811; under setting [1], 0.934. As for “CGACATGTCCCGCTTCTTTCATTAATCCGTTAGCAACTGTTTTGCTATATACATTTAGGTTTTAAGAGGAGGAAT”, the “cleaved RNA product abundance” value under setting [2] was 0.86. Turning to “ACAGACGAAGGAGCCGCAAAGAAATTATTAAGGGATGAATAATCCCTCAGTATAAATATCTCTCACTTATTTAAA”, under setting [1], the “cleaved RNA product abundance” value worked out at 0.215. Same read-out and setting: with “ACAGACGAAGGAGCCGCAAAGAAGTCATTAAGGGATTAATAATCCCTCAATATAAATATCTCTCACTTATTTAAA” the figure was 0.236. “ACAGACGAAGGAGCCGCAAAGAAATTATTAAGGAATGAATAATCCCTCAATATAAATATCTCTCACTTATTTAAA”: the “cleaved RNA product abundance” value is, setting by setting: under setting [3], 0.101; under setting [1], 0.191; under setting [4], 0.104.

Turning to “ACAGACGAAGGAGCCGCAAAGAAGTTATGAAGGGATGAATAATCCGTCAATATAAATATCTCTCACTTATTTAAA”, under setting [1], the “cleaved RNA product abundance” value came to 0.222. Still for that read-out and setting: with “ACAGACGAAGGAGCCGCAAAGAAGTTATTAAGGCATGAATAATCCCTCAATGTAAATATCTCTCACTTATTTAAA” the figure was 0.0571. Regarding “ACAGACGAAGGAGCCGCAAAGAAGTTATTAAGGAATGAAGAATCCCTCAATATAAATATCTCTCACTTATTTAAA”, the “cleaved RNA product abundance” value under setting [3] was 0.0952 and the “cleaved RNA product abundance” value under setting [1] was 0.17.

“ACAGACGAAGGAGCCGCAAAGAAGTTTTTAAGGGATGAATAATCCCGCAATATAAATATCTCTCACTTATTTAAA”: under setting [1], the “cleaved RNA product abundance” value was 0.137.

Turning to “ACAGACGAAGGAGCCGCTACGAAGTTATTAAGGGATGAATAATCTCTCAATATAAATATCTCTCACTTATTTAAA”, the “cleaved RNA product abundance” value under setting [1] came to 0.816.

Consider “ACAGACGAAGGAGCCGCAAAGAAGTTATTAGTGGATGAATAATCCCTCAATATAAATATCTCTCACTTATTTAAA”, for which the “cleaved RNA product abundance” value under setting [3] was 0.295 and the “cleaved RNA product abundance” value under setting [1] is 0.385. As to “CGACATGTCCCGCTTCTTTCATTAATCCGTTAGTAACTGTTGTGCTATATACATTTACCTTTTAAGAGGAGGAAT”, the “cleaved RNA product abundance” value under setting [2] was determined as 0.358.

As for “CGACATGTCCCGCTTCTTTCATTAATCAGTTGGCAACTGTTTTGCTATATACATTTACCTTTTAAGAGGAGGAAT”, under setting [2], the “cleaved RNA product abundance” value was 0.497. Still for that read-out and setting: with “CGACATGTCCCGCTTCTTTCATTAATCTGTTAGCAACTGTTTTGCTATATAGATTTACCTTTTAAGAGGAGGAAT” the figure was 0.587. Regarding “ACAGACGAAGGAGCCGCAAAGAAGTTAATAAGGGATGAATAATCCCTCAATATAAAGATCTCTCACTTATTTAAA”, the “cleaved RNA product abundance” value under setting [3] turned out to be 0.182. As for “ACAGACGAAGGAGCCGCAAAGACGTTATTAAGAGATGAATAATCCCTCAATATAAATATCTCTCACTTATTTAAA”, the “cleaved RNA product abundance” value under setting [3] was 0.101 and the “cleaved RNA product abundance” value under setting [1] is 0.116. As to “ACAGACGAAGGAGCCGCACAGAAGTTATTAAGGGATGAATAATCCCTTAATATAAATATCTCTCACTTATTTAAA”, the “cleaved RNA product abundance” value under setting [1] stood at 0.633.

In the case of “CGACATGTCCCGCTTCTTTCATTATTCTGTTAGCAACTGTTTTGCTATAAACATTTACCTTTTAAGAGGAGGAAT”, the “cleaved RNA product abundance” value under setting [2] was 0.834. As for “ACAGACGAAGGAGCCGCAAAGAAGTTATTAAAGGATGAATAATCCCTAAATATAAATATCTCTCACTTATTTAAA”, the “cleaved RNA product abundance” value reads like this: under setting [3], 0.232; under setting [1], 0.342. For “ACAGACGAAGGAGCCGCAAAGAAGTTATTAAGGGATGAATAATCCCTCTATCTAAATATCTCTCACTTATTTAAA”, the “cleaved RNA product abundance” value under setting [1] turned out to be 0.101. On to “ACAGACGAAGGAGCCGCAAATAAGTTATTAAGGGATGAATAATACCTCAATATAAATATCTCTCACTTATTTAAA”, for which the “cleaved RNA product abundance” value was determined as 0.112 under setting [3] and 0.165 under setting [1].

With “ACAGACGAAGGAGCCGCAAAGTAGTTATTTAGGGATGAATAATCCCTCAATATAAATATCTCTCACTTATTTAAA”, the “cleaved RNA product abundance” value was 0.726 under setting [3] and 0.869 under setting [1]. Regarding “ACAGACGAAGGAGCCGCAAAGAAGAAATTAAGGGATGAATAATTCCTCAATATAAATATCTCTCACTTATTTAAA”, the “cleaved RNA product abundance” value under setting [1] was 0.129. With “ACAGACGAAGGAGCCGCAAAGAATTTATTAAGGGATGAATAATCCCTCAACATAAATATCTCTCACTTATTTAAA”, the “cleaved RNA product abundance” value is, setting by setting: under setting [3], 0.298; under setting [1], 0.365. Regarding “CGACATGTCCCGCTTCTTTCATTAATCCGTTAGCAACTGTTTTGCTATATACATTGACCTTTTAAGAGGAGGAAT”, the “cleaved RNA product abundance” value under setting [2] is 0.989. On the same count and under the same terms, with “CGACATGTCCCGCTTCTTTCATTAATCCGTTAGCAACTGTTGTGCTATAAACATTTACCTTTTAAGAGGAGGAAT” the figure was 0.453. Turning to “CGACATGTCCCGCTTCTTTCATTAATCCGTTAGCAACTGTTTAGCAATATACATTTACCTTTTAAGAGGAGGAAT”, under setting [2], the “cleaved RNA product abundance” value amounted to 0.455. In the case of “ACAGACGAAGGAGCCGCAAAGAAGTTATTAAGGGATGAATAATCCCTCAACATAAATATCTCTCACTTATTTAAA”, the “cleaved RNA product abundance” value was 0.22 under setting [3], 0.345 under setting [1] and 0.137 under setting [4].

Regarding “CGACATGTCCCGCTTCTTTCATTAATCCGTTAGCAAATGTTTTGCTATATACATTTAAATTTTAAGAGGAGGAAT”, the “cleaved RNA product abundance” value under setting [2] is 0.806. Take “ACAGACGAAGGAGCCGCAAAGATGTTAATAAGGGATGAATAATCCCTCAATATAAATATCTCTCACTTATTTAAA”: the “cleaved RNA product abundance” value by setting is: under setting [3], 0.237; under setting [1], 0.311. For “CGACATGTCCCGCTTCTTTCATTAATACGTTAGCAACTGTTTTGCTATATACATTTACTTTTTAAGAGGAGGAAT”, under setting [2], the “cleaved RNA product abundance” value came out at 0.472. For “ACAGACGAAGGAGCCGCAAAGAAGTTATTAAGGGAAGAATAATCCGTCAATATAAATATCTCTCACTTATTTAAA”, under setting [3], the “cleaved RNA product abundance” value amounted to 0.0722.

Regarding “CGACATGTCCCGCTTCTTTCATTATTCCGTTAGAAACTGTTTTGCTATATACATTTACCTTTTAAGAGGAGGAAT”, the “cleaved RNA product abundance” value under setting [2] amounted to 0.309. Same read-out and setting: to “CGACATGTCCCGCTTCTTTCATTAATCCGTAAGCAACTGTTTTGCTATATACATTTACATTTTAAGAGGAGGAAT” belongs 0.531. The same measure, in the same setting: to “CGACATGTCCCGCTTCTTTCATTATTCCGTTAGCAACTGTTTTGCTATATACATTTAACTTTTAAGAGGAGGAAT” belongs 1.71. Consider “ACAGACGAAGGAGCCGCAAAGAAGTTATTAAGTCATGAATAATCCCTCAATATAAATATCTCTCACTTATTTAAA”, for which the “cleaved RNA product abundance” value runs as follows: under setting [3], 0.0957; under setting [1], 0.106. Take “CGACATGTCCCGCTTCTTTCATTAATCCGATCGCAACTGTTTTGCTAGATACATTTACCTTTTAAGAGGAGGAAT”: the “cleaved RNA product abundance” value under setting [2] is 0.119.

With “ACAGACGAAGGAGCCGCAAAGAAGTTCTTAAGGGATGAATAATCCCTCAATATAAATAACTCTCACTTATTTAAA”, the “cleaved RNA product abundance” value under setting [1] turned out to be 0.162.
